We go through one molecule from patent US20190062422A1 (MorphoSys, published 2019).

The experiment addresses T1, mouse IL-17RB (mouse, UniProt Q9JIP3 18-286).
T1 construct: extracellular domain; also called IL17 receptor B
T1 sequence (looked up): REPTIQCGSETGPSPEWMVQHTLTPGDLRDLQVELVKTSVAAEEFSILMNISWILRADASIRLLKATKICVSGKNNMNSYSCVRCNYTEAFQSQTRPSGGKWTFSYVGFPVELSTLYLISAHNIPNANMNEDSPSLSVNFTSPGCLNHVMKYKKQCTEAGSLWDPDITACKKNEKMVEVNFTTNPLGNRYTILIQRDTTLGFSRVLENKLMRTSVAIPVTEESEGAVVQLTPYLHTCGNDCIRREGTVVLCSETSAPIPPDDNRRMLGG
The experiment is described as follows: MSD receptor interaction assay, coated receptor, biotinylated mouse IL17C, streptavidin detection. Here is the method: To test binding of mouse IL17 to its putative receptor, IL17 receptor E an interaction assay was set up. The assay setup is depicted in FIG. 1A. In brief, IL17 receptors B and E were coated on a Multi-array® 384-well plate Standard plate (Meso Scale Discovery; #L21XA-4) and biotinylated mouse IL17C was added. Binding of mouse IL17C to its receptor was measured via binding of Streptavidin in a MSD Sector Imager 6000 (Meso Scale Discovery, Gaithersburg, Md., USA).

B1: mouse IL17C (ligand, UniProt Q8K4C5 17-194, looked up)
chain: DPPSWGKPRSHRTLRCYSAEELSHGQAPPHLLTRSARWEQALPVALVASLEATGHRRQHEGPLAGTQCPVLRPEEVLEADTHERSISPWRYRIDTDENRYPQKLAVAECLCRGCINAKTGRETAALNSVQLLQSLLVLRRQPCSRDGTADPTPGSFAFHTEFIRVPVGCTCVLPRSTQ
modifications: biotinylated in the receptor interaction, inhibition and serum stability assays (sites not given)
notes: Bought recombinant protein; About 22 kDa reduced and about 40 kDa non-reduced on SDS-PAGE; Used plain (coated, ELISA) or biotinylated; also called biotinylated mouse IL17C; biotin-IL17C
Take B1: the binding result is “no binding”.
